Reference: the domain aggregation screens of Martell et al. (2025)

Test: soluble fraction after stress (log2 fold change); higher = more stays soluble; pooled small domains, quantitative proteomics
Settings: stress: 50 degC
How it was run: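 Pooled custom libraries of small protein domains were each held under stress at 50°C. The read-out, high-throughput quantitative proteomics, tracked how much of each protein stayed soluble. This is reported as a base-two log fold change used to indicate aggregation propensity. Higher values mean more protein remains in solution.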

| Sequence | soluble fraction (log2) |
| --- | --- |
| HMIIIPKKDYDVSQLDNLVSWLKDRGLEVHISRGENLTVIGLIGDTSKIDIDLIRSLDVVEEVKRIQ | -0.326 |
| HMIIVMASSKKEDVAHVVHKIEELGYKAHVIVGVERTVVAAVGDERGKERLISLEALPHVEKVFPILK | -0.055 |
| HMIKEVEYSQFLQMTDQGEVGKVEINEQENSILFTDKAEKNIYKTGMVEDAELSMRLYEAGIPFSGQI | -0.0245 |
| HMIKEYEVLNYVTYEYDEIKKKLEEDFGIIVLMKEAYSDETPAGIIMDQDVEQGRIFKEGATNTITFTVS | -0.434 |
| HMIKLSEAEWKVMKLLWEESPKTMMQITNLLKETTGWTKHTVMTFLKRMEEKKAIHYEEGGRAKLYYP | -0.589 |
| HMIKVASVDGASDELAHEIREIMPLDFPVSYFDLDIKYLHKVLNDIPAVESAAIKVTVSGVLQIDISER | 0.43 |
| HMILALAISSEEDDARIYATYADRLREAYPASARVFEGMVDEEHEHRRRLIDLFQRRFGDTIPLVRREHV | -0.61 |
| HMILNPADEEKMNLINFELQQRGLEINDKEMQYIFTHHSRDLNSLLNLAEKLDEISHQEKKSISINLIKKI | -0.0218 |
| HMILNWSEYTRSEIIELARDLSPDKYMIIDDINTYSKMKLLPSQAFIAEMFGSLRQFQKEAWGRE | -1.88 |
| HMILPKFNQLLGQMGENIKLARKRRKLTAVQVSERAGIARSTLYLIEKGDASVSLGAYFNVLRVLG | -1.46 |
| HMIMEVDYGTFMKMTEENAIGRVQMDSTEIIFTDKENTQVYSTGIMYDPDLTQRLYDAGAVFA | -0.986 |
| HMIMGTIEKRGPFSFRIGVQVRLPDGSWEWIRDTIHVSPDLSARAARKQAEMALARLEADVYEGKRKPD | -0.878 |
| HMIMLDRILKIMDYNKFTPSEFADVLEIDRSRLSHILNGRNKPSLEIVMKILEKFPEISSDWLLFGSGNML | -1.49 |
| HMIMNEYEELRDRYLIGQIWKIGDLIEAKGIEGKIIQRGTNYVTFNDNNGKVHKAWLHEIKYEQ | -0.343 |
| HMIMNKEIPVVADEFVEKEFGTGAVKLTPAHDPNDYESGERHGLEVVEVFDETGKMNDLVPEYEG | 0.551 |
| HMIMTGSIQEKNGKYYTVLNIKDKNGKYKKKWQTTGLPVKGNKRKAEQILRRRIAEYEANQL | -0.436 |
| HMIMTHSALLEKDGFDIVKVHFERPNDDGFDFLDMTLPGEIVYKSFGFSEDEILKLKRYAKNNSSLIWDF | -2.31 |
| HMINEDMTQSDRMELWGRLIDVVEDWLAEKGITEEDIPNEEREGVEDAAIIFGDDYDYLADRFSEVIGISR | -1.18 |
| HMINFKVKNVQDVGSRLDKFLVTNIPEFSRSKIQKHIKNGKVMVNGLLKKTGYKLEINDEINILNN | -0.276 |
| HMINLDYILELIFEKNNKTKDKTALIEEIRGVIRASVGNRAKESLIVDFINDTDLDTITDKASIIESFFEY | -3.51 |
| HMINLTKVGNFISIIKLQQIWTIDELLKKVDINYDELLYLLTILSDIYSKNGEYFFDFDIDAENNKILFNN | 0.42 |
| HMINVGYKFKQIRENAGLTLKQVSAMSGLSVSFISQIERGVVDPSWSSLKKISAALNIKLKDLF | -1.78 |
| HMIPDLPAIGENLYRERKRQQLSMAELAAASGISKAMLSQIEADKVNPTIATLWKIAHALHVDLESLISGG | -0.578 |
| HMIPDPEKVMFDGGIRLLTQAGITEGKARSILGKWKRDHETERIIAALGAAQREGAIEPVSFIERVLRN | -0.0153 |
| HMIPKIIDITDLNEEVREVIEEYMKRKRVEKYHIYQDSKGQIFIISGSAIIRYDSKLNNLYYL | -0.405 |

| Sequence | soluble fraction (log2) |
| --- | --- |
| HMIPLKTEAIPVSYGDGAAIIRSLAVAFPSRTFHWDAQTRRIIGQALDEEWQVIRSLVWQLDIP | -0.584 |
| HMIPLSDEETILLKLLEATETHLDALIRGSQLSAAKVSVVLMGMEMKRLVKRLPGQMYQRWD | -1.84 |
| HMIPRNLEDLVRENQIGLVILKIVEIIGEDNIRDLDPETIYFINRILNELNLKKIRNNILSEALPPR | -1.31 |
| HMIPSEQYNTALTEIGLSTRAHNSLRRAGIMTLGQLIEKTRDGLPPLPGFGDKSQVEVQDLLTGLGYPI | -0.203 |
| HMIPSGISEHPISKLPLSMSIIHRLELAGIKTIGDITGENFSRLQEIPRIGKVTAKRILEAIQSYSEQLP | -0.15 |
| HMIPYQDPLPKGAEESLLSKYPGFEITGVHFVNDTNFIGYKVRLERGEDREEISLDVNGKFL | 0.0829 |
| HMIQADFIPQVEQRLADRGLSMSGDVMAAFLDRAGYGLRHVSNEIEKLSLYLGDRKKVTVEDVVQMVAPVR | -0.283 |
| HMIQAGDLVFIWNPKKGDNFLIKVTPGMSQGTHFGQIKHTELMEREYGEGIVTPKGEVYYLLRPTLAGYTR | -0.973 |
| HMIQIGEQIRYYRTKIGISQEALALMADINPAYIGQIERGIKSPTVNTIKKIANAMGINLHTLFT | -2.91 |
| HMIQKTHPALEIVKEYFSSQAASEFEAERFFNYYTSNGWLIGGKTKMKDWQAAARNWILNTAK | -0.199 |
| HMIQNEITLMLQVNGKLRGQIQVPSDASKEQIEQLAKDSEAAQKALAGASPKKIIVVPGRLVNIV | -0.092 |
| HMIQQFTYAFAKDKGVVVLPGRDVLTLGMRAGADPLVLLEARRALGSSFELEPLDRDTYERTLADVFTADA | -0.695 |
| HMIQRLNVNTEVLSTYIRNSNTPIEYLRQKLPNIDKFLKGELEPTFNQVYALSKLINIPTGLLLLKEPIS | -0.995 |
| HMIQSEQIPFSKFLKEVDSGRVVQVEIQGNNINGVLSDGSKFKTYSPNYPELVGKLSDKGVSIVASPV | 0.106 |
| HMIQTKNVTFTINEKTKIANIPLKSLKILSQEDNRITLSYEKNSLKIDEIISYFSDKNINILDITTD | -0.451 |
| HMIQYRKILELHFKDISQRTISTSVGSSRNTVSDVIKRSEQLGLERLTDNMNNRWLEEFLFPEKQ | -4.17 |
| HMIRALVPGQTLHGEIVGRNGGEVQVRLAEDMILNARVDQNIYLELGKDLTFEVKNNGATLTLSPL | -0.272 |
| HMIRDTTMYPVSVNGKKRYEWTVSKSISDDELKQQVLELEEIKKWIEGHEIKKLIFVPGRAINIV | -0.69 |
| HMIRDVDYNTFVSMVQEGKVGQVEIQEQNNRILFTDKDERTVYKTAMVPDSDLISRLLEAGVSTS | 0.204 |
| HMIRTGEVVTGKVINVKEDQIILNIGFKSDGIITRNEYTNDNSLDLRTVVHEGDEIEAKVLKVNDGEGQVV | ≥ 0.62 |
| HMIRVGRPQYKRGEFVSFDFDNGRKKTEMYGRVDVIDSYGTFGQGREVSYDIRASDGILYKHIPESSVYGF | -1.5 |
| HMIRVVSIEDQPWFVAADVLKSLGMPTDKGVGKYLLALGSDERMLTTHGQIGGKGMAVTTIISESGLY | -0.46 |
| HMISDAEWKIMNVLWEEQPRTMMQITKELQEETGWTKHTVMTYLKRMESKKIIHYVEGEKAKLYYS | -0.0967 |
| HMISDDLYQAVLDFTLTQDTISISRLQQNFNLGWPRARQLYDQLMQNGIIEPPDEANSAKGAVVIANKRG | 0.46 |
| HMISIKEAVFPFSRFPGVDTLLGPEMKSTGEVMGLADNFGHAYAKSQIASGSKLPESGTLFVSVKNSD | -0.309 |

| Sequence | soluble fraction (log2) |
| --- | --- |
| HMISKRFQIDEENAHKRIDIFLSHEFDSISRGIVQELIVKGEVLVNDKVTKRNYKLKTGDLVDITINL | -2.59 |
| HMITDQQKEQLSSLLKQAEAALAKAAANDQVLAAHKDEAVELLKSTSATSADAADLINELTELLKPYQ | 0.352 |
| HMITEDQVIARIGLLSPAEKSLLKDKLERFRRLTLSEQQHLREFHSALDNHDKRTDLLNVLRKYNDWVNQL | -1.67 |
| HMITEQEFQRVAAYVKNKAGINLNEKKVLVQGRLDSYMQRKGYSSYDEFMDRVERFPTGPEAEDLMNALTT | 0.0575 |
| HMITFRINQQSQVGLRLDKFIVQQMPDYSRTRIQSWIKTKNILVNGEGKKSGYALEFDDLVEVTIPE | -2.04 |
| HMITGREMDVLEALWSSEKPLVASDIPKMKPSLSISSVQLALRNLVKKKLVEVADIVYSGTVLSRSYRP | 0.0545 |
| HMITIDNYFNKEKELDFSSFPEALRKGHGFVSKATAHGSSWVSYHSSDAIKKTIDIYLSKLNEYLSNNAKA | -0.494 |
| HMITLYDLLGVSKTASSQEIKTAFKKKALQYHPDKNDGNPDKEEIFKRINMAYQVLGQPQSRANYDFSITP | -0.321 |
| HMITNMIIIMKPNASEEAIEKVKHLIESKGLQAHLSKGDEVTIVGVVGDKTRLHDSNIEISEGVDKIVNVT | 0.317 |
| HMITPAGVPPALLPVFDQFTLPDGTLRRGAVAAALRALYGPDAPQSGKRYQMEYDRVMAWHSQYFTSLH | -0.34 |
| HMITPKQTAETLGIATSTLRRWASEFEPFLSLRTGVKRTYTTDDITTLKRVKDLFAQGLKTEQVREAL | -0.161 |
| HMITPNQAAVTLKVSTSTLRRWSSDFEPFLSPRKGVKRLYTIEDIATLKRIQGLYKQGMNTAQVQA | -2.1 |
| HMITQQEFQQKLEALLSRAEAESFHIKKEEAESFFSGDELTGEQMKLVFDYLLSKKIIVEGYLK | -0.0863 |
| HMITTEEVLNRIRKKVDHPATIRELQKALSIADDDRHRFRRRIRTLVASGALVRIRGNRYGLPSK | -0.275 |
| HMITTWAGKATTDVYGRVDANPKADAVLVIKTGWTVQVVGSKTAPDGGTWYKLIYNGKTMYANSKFIVK | -1.16 |
| HMITVEAPMPGKVLSVNVKAGDKVEAGDVLLILEAMKMQNEIMAPEDGTVSDVRVSAGDTVATGDVMVV | 0.0409 |
| HMIVIMAKESSPAELEGVKNRIESHPGLRPQVFDGVERIVVGVLGSIPPDLKDEIELLPGVIEVVPISK | -0.0582 |
| HMIVVLKHGVTEQQMRNLIAWFKDQGVDVHVSRGIYQTVLGLVGDTSDIDVDLLRMLDIVDAVKRIT | -1.76 |
| HMIVVMAADSSREDLDLVQGRIEARGLRAQISQGVERIVIGVLGSLPPDLKDEMELLPGVREVLVIS | -0.405 |
| HMIYGNGVTDLKDLANGATIIIPADDSNETRALFLLQQEGLIKLPDDADAAKGVSTLDIVDGGGWVTSM | 0.0431 |
| HMIYKLIADRLKNRINSDEFEVGDALPSEKALAGELEVSVMTIRKALTLLESEKLIVKRHGSGSYVARKSN | -0.429 |
| HMIYRTTSVPIDNISTQKFNLQEGWIEMNKNEVEDFIRQKNLELVVTDSNVMLDKFALNGDPNKFKVFKY | -0.094 |
| HMKADTSPEAQKKIIAAFEPYSVNKDQIEKLIQRRIDSITPAQVIRLRKILASLKDGMSSPEDWFE | 0.0361 |
| HMKAERLLALLTILLSGKRVSARWLSEELEVSERTVYRDVEALSEAGFPVYATTGRDGGFSLIDGF | -2.08 |
| HMKAKPTLLTPYEERLKGWLETDSRRPKRDRRTGLALFAKLQQEGFTGSYTRVTEYIRRWRDSGG | -3.01 |
